According to patent US20210324059A1 (AMLO BIOSCIENCES, published 2021):
No end group written: not given here.

Columns and labels:
[1] = biological target: T1, N1-CD33-His6 (the ectodomain of human CD33 fused to the N1 domain of the g3p filamentous phage M13) (filamentous phage M13; human, UniProt P20138 18-259); test: QC ELISA on immobilized control protein
T1 construct: extracellular domain; Control protein of the QC ELISA, used for calculation of background; not shown: N1 domain of g3p of filamentous phage M13

[2] = biological target: T1, N1-CD33-His6 (the ectodomain of human …); test: quality control ELISA on immobilized control protein
[3] = biological target: T2, Ambra-1 peptide (synthesized peptide to which anti-Ambra-1 antibodies were raised) (human, also: conjugated to carrier protein (BSA), site not given here); test: quality control ELISA, chimeric human/mouse IgG1 on immobilized Amb1-TRF and Amb1-BSA (Ambra-1 peptide conjugates), signal over background
T2 construct: It was tested in native and denatured form; also called Ambra-1 antigen
T2 peptide: CGGSSRGDAAGPRGEPRNR

human Ambra-1 = biological target: T3, human Ambra-1 (human, UniProt Q9C0C7 1-1298); test: automated immunohistochemistry, DAB chromogen
T3 construct: Endogenous protein in formalin fixed paraffin embedded human skin and melanoma sections (immunohistochemistry)
T3 sequence: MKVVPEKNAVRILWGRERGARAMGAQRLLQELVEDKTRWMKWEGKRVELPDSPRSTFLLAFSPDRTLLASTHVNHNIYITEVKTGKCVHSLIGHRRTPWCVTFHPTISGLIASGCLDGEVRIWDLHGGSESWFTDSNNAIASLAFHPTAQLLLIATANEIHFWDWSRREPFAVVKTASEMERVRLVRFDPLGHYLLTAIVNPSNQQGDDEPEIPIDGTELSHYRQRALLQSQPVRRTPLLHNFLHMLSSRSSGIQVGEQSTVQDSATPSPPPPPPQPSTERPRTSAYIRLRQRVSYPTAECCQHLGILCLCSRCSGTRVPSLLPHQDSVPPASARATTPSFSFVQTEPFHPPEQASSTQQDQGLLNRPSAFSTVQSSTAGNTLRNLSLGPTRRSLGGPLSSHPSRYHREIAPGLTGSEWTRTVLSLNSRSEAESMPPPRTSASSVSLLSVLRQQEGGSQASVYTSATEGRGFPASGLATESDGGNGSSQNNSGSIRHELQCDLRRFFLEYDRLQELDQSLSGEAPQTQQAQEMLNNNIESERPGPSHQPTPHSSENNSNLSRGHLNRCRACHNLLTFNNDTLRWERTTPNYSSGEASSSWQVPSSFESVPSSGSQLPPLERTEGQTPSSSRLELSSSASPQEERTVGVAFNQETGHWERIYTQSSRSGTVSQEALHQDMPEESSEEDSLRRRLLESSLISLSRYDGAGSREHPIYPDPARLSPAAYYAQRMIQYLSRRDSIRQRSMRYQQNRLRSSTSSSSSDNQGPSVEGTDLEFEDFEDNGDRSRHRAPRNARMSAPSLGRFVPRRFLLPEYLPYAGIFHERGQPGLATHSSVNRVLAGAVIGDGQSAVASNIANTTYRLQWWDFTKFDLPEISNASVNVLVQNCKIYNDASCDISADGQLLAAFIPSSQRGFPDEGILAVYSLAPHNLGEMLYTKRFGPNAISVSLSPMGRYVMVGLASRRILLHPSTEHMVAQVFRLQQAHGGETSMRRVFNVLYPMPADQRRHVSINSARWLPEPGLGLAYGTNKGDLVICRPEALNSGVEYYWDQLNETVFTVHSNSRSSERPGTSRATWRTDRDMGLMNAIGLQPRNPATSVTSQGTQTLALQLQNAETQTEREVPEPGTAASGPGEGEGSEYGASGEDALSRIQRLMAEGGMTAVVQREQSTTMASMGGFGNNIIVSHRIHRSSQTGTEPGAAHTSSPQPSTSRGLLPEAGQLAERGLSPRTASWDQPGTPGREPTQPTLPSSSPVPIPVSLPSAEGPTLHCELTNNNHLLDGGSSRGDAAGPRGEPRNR

[4] = biological target: T1, N1-CD33-His6 (the ectodomain of human …); test: quality control ELISA on immobilized control protein; remark: listed apart in the source

T1 sequence (P20138 18-259, tags left off): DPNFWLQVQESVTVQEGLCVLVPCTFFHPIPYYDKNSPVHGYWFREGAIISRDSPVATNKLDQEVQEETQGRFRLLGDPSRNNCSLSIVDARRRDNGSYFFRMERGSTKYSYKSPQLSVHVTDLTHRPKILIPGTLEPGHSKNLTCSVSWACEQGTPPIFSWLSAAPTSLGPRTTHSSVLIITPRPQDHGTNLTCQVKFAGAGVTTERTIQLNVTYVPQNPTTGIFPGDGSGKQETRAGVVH

B1: recombinant human HuCAL antibody fragment for Ambra-1 Abd33473.1 (Fab)
heavy: EVQLVQSGAEVKKPGESLKISCKGSGYSFSSYWIHWVRQMPGKGLEWMGTIFPSRSYTTYSPSFQGQVTISADKSISTAYLQWSSLKASDTAMYYCARDTPSTALKSPFDYWGQGTLVTVSSASTKGPSVFPLAPSSKSTSGGTAALGCLVKDYFPEPVTVSWNSGALTSGVHTFPAVLQSSGLYSLSSVVTVPSSSLGTQTYICNVNHKPSNTKVDKKVEPKSRTPEMPVLENRAAQGDITAPGGARRLTGDQTAALRDSLSDKPAKNIILLIGDGMGDSEITAARNYAEGAGGFFKGIDALPLTGQYTHYALNKKTGKPDYVTDSAASATAWSTGVKTYNGALGVDIHEKDHPTILEMAKAAGLATGNVSTAELQDATPAALVAHVTSRKCYGPSATSEKCPGNALEKGGKGSITEQLLNARADVTLGGGAKTFAETATAGEWQGKTLREQAQARGYQLVSDAASLNSVTEANQQKPLLGLFADGNMPVRWLGPKATYHGNIDKPAVTCTPNPQRNDSVPTLAQMTDKAIELLSKNEKGFFLQVEGASIDKQDHAANPCGQIGETVDLDEAVQRALEFAKKEGNTLVIVTADHAHASQIVAPDTKAPGLTQALNTKDGAVMVMSYGNSEEDSQEHTGSQLRIAAYGPHAANVVGLTDQTDLFYTMKAALGLKDYKDDDDKHHHHHH
light: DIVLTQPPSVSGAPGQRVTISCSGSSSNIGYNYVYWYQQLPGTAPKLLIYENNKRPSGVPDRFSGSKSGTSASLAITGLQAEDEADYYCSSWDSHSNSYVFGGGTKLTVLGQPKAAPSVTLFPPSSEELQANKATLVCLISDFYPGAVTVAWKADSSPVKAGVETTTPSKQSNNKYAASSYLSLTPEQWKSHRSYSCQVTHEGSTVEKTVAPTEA
notes: also called HuCAL antibody 33473
- binding result [1]: no binding

B2: full length chimeric antibody AbD33047 with an IgG1 mouse Fc region (antibody, V domains shown)
VH: QVQLVQSGAEVKKPGASVKVSCKASGYTFNDYYIHWVRQAPGQGLEWMGVISPNSGKTNYAQKFQGRVTMTRDTSISTAYMELSRLRSEDTAVYYCARDLYPDSSAFDIWGQGTLVTVSS
VL: DIELTQPPSVSVSPGQTASITCSGDNLGDKYAHWYQQKPGQAPVLVIYDDNERPSGIPERFSGSNSGNTATLTISGTQAEDEADYYCQSYDSGNRVFGGGTKLTVLG
notes: also called recombinant monoclonal antibody AbD33047; HuCAL antibody AbD33047
- binding result [2]: no binding

B3: full length chimeric antibody AbD33473 with an IgG1 mouse Fc region (antibody, V domains shown)
VH: EVQLVQSGAEVKKPGESLKISCKGSGYSFSSYWIHWVRQMPGKGLEWMGTIFPSRSYTTYSPSFQGQVTISADKSISTAYLQWSSLKASDTAMYYCARDTPSTALKSPFDYWGQGTLVTVSS
VL: DIVLTQPPSVSGAPGQRVTISCSGSSSNIGYNYVYWYQQLPGTAPKLLIYENNKRPSGVPDRFSGSKSGTSASLAITGLQAEDEADYYCSSWDSHSNSYVFGGGTKLTVLG
notes: also called recombinant monoclonal antibody AbD33473; HuCAL antibody AbD33473
- binding result [3]: binds
- binding result (human Ambra-1): binds
- binding result [4]: no binding
